Results published in the supplement of paper PMC12764529.
± gives the half width of the 95% confidence interval.

What was measured:
[1] = folding stability dG unfold from trypsin proteolysis; higher = more stable
Procedure, shortened: (§1)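 Designed mini-proteins (under 80 residues, no cysteine) in a PA-tagged cDNA display construct were digested with trypsin and chymotrypsin. Each protease was used at 11 concentrations (threefold dilutions) plus a no-protease condition, followed by sequencing. K50 was inferred by Bayesian fitting of sequencing counts, and unfolding free energy was derived against a sequence-predicted unfolded-state K50 and a shared folded-state K50, per protease or combined. Only designs with AlphaFold2 dimer inter-PAE above 15 were kept.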

[2] = folding stability dG unfold from chymotrypsin proteolysis; higher = more stable
Procedure, shortened: as §1

[3] = folding stability dG unfold (combined trypsin and chymotrypsin); higher = more stable
Procedure, shortened: as §1

Sequence | folding stability dG unfold [1] [kcal/mol] | folding stability dG unfold [2] [kcal/mol] | folding stability dG unfold [3] [kcal/mol]
SAGGSAGGSAGGMLFHFEIKDPNSDKEYEVLVEKPPSGKVLVTILKDNKEEVKVLPLELFSAGGSAGGSAGG [r11_952_JUSTAS] | 0.109 ± 0.17 | -0.393 ± 0.42 | -0.29 ± 0.31
SAGGSAGGSAGGMLILVEVNGEKRLLEADSLEDALAKLPPGATVTRVEIFEVEEVELPESAGGSAGGSAGGS [r10_13_TrROS_Hall] | 2.36 ± 0.067 | 2 ± 0.059 | 2.15 ± 0.068
SAGGSAGGSAGGMLLSPEEAEKLAAELKAKENVTIKVTPEPSPGKVKVEIIKTKGPKLVSAGGSAGGSAGGS [r10_402_JUSTAS] | -0.0172 ± 0.17 | 0.54 ± 0.061 | 0.418 ± 0.16
SAGGSAGGSAGGMLTAVFTTPGNVRRLVPFSSEEEARALAEAEGVEVEFLDPAEAARLLSAGGSAGGSAGGS [r10_66_JUSTAS] | -0.569 ± 0.17 | -0.497 ± 0.25 | -0.476 ± 0.14
SAGGSAGGSAGGMLVRIPRGDKGFVLEIETDGVRTVEEFDGTEEEIREYAEKNGFEILESAGGSAGGSAGGS [r10_506_JUSTAS] | 0.771 ± 0.017 | 0.883 ± 0.051 | 0.892 ± 0.071
SAGGSAGGSAGGMMKITIEVDGKKIEITLPPGAELKFDKEKKEIYIRNKKTNEILKLKIKSAGGSAGGSAGG [r7_7_TrROS_Hall] | 1.9 ± 0.048 | 2.35 ± 0.041 | 2.21 ± 0.11
SAGGSAGGSAGGMMRIRIKIYNVETGEWKEIEIEVPESVKEITLEIELPEGWRIVEIEVESAGGSAGGSAGG [r7_687_TrROS_Hall] | 5.39 ± 0.52 | 5.22 ± 0.087 | 5.32 ± 0.14
SAGGSAGGSAGGMMVNLKVTREKLPNGKYRVTFTLPNGEEVVVEVESEEEAEAAAKEIAASAGGSAGGSAGG [r11_955_JUSTAS] | 3.2 ± 0.053 | 4.23 ± 0.052 | 3.95 ± 0.084
SAGGSAGGSAGGMNPVSKVTKHSGPNGQVTETTTYFDPASGKTTVTYTDLVTGTTSTISTSAGGSAGGSAGG [r11_1063_JUSTAS] | -0.579 ± 0.047 | -1.02 ± 0.41 | -0.823 ± 0.17
SAGGSAGGSAGGMPADEKVTTSPEIVTLPNGTRVVVTKSTSPDPSVSSTSVTVLPPNVPPSAGGSAGGSAGG [r11_338_JUSTAS] | 0.393 ± 0.029 | 1.38 ± 0.027 | 1.05 ± 0.066
SAGGSAGGSAGGMPIPVTITVSDPATGTTKVVKTVLVTSPEKLEEVISKLPEGKKYTVVESAGGSAGGSAGG [r7_307_JUSTAS] | -0.415 ± 0.098 | -0.224 ± 0.22 | -0.393 ± 0.29
SAGGSAGGSAGGMPLTLTSETVTVERDPTSNNVVTTTTTTYKLPNGTLVTVTTTTTSPTTSAGGSAGGSAGG [r7_267_JUSTAS] | 2.38 ± 0.1 | 2.21 ± 0.034 | 2.33 ± 0.06
SAGGSAGGSAGGMPTTATITLPGGETLTVPVPVDPSTGTVSEEEIRALVGPEFEFEILGGSAGGSAGGSAGG [r7_492_JUSTAS] | 0.779 ± 0.04 | 1.49 ± 0.062 | 1.24 ± 0.068
SAGGSAGGSAGGMPVTLNVTVKTKDPDGVAATETVTLTFSSPEEALAAIKAAYPNSTIESAGGSAGGSAGGS [r10_1248_JUSTAS] | 0.995 ± 0.057 | 1.33 ± 0.061 | 1.15 ± 0.12
SAGGSAGGSAGGMRLVRITTEDGRTITAPVGETITITRPDGSKVKITRVEVFELPPEDLSAGGSAGGSAGGS [r10_20_TrROS_Hall] | 0.744 ± 0.021 | 1.51 ± 0.025 | 1.23 ± 0.041
SAGGSAGGSAGGMRRVTIWFPIPEDEEITFKLPGNGVEVEIEPDKGNGFFRITVYLPDGSAGGSAGGSAGGS [r10_1138_TrROS] | 1.42 ± 0.036 | 2.07 ± 0.12 | 1.94 ± 0.098
SAGGSAGGSAGGMTIEINGKKYEIVEVKEEKGKLTLKIKVNGKLLEIEIDKDKNEIKIYPSAGGSAGGSAGG [r7_553_TrROS_Hall] | 3.44 ± 0.14 | 4.05 ± 0.1 | 3.91 ± 0.14
SAGGSAGGSAGGMTITVVTEESPGPFKTVTVTTTTPLPNGTLATTTTTTFLPVSPDEPVSAGGSAGGSAGGS [r10_241_JUSTAS] | 1.52 ± 0.044 | 0.208 ± 0.27 | 0.983 ± 0.08

Sequence | folding stability dG unfold [1] [kcal/mol] | folding stability dG unfold [2] [kcal/mol] | folding stability dG unfold [3] [kcal/mol]
SAGGSAGGSAGGMTLEEVKKALEELGIKEENQTVTIELEDGSKVKITVKDGKVVLEVEPSAGGSAGGSAGGS [r10_604_TrROS_Hall] | 2.81 ± 0.18 | 2.19 ± 0.1 | 2.54 ± 0.13
SAGGSAGGSAGGMTLRIRVRNKDGKVLEIEVEVDEDKTPEEVARELAKKLNVEKVEIFPSAGGSAGGSAGGS [r10_400_TrROS_Hall] | 2.2 ± 0.07 | 2.32 ± 0.038 | 2.28 ± 0.13
SAGGSAGGSAGGMTPIEVTVELEEPTRRTTRRFTFTSPEEVEAYLKALPASWRVTRVELRSAGGSAGGSAGG [r17_410_JUSTAS] | 1.58 ± 0.038 | 1.82 ± 0.15 | 1.66 ± 0.075
SAGGSAGGSAGGMTTVTLTLTTELEVKDPEGKLHRETVTVTVTVPVPPSTLTDTTDLVSSAGGSAGGSAGGS [r10_168_JUSTAS] | 1.82 ± 0.1 | 2.12 ± 0.054 | 1.91 ± 0.17
SAGGSAGGSAGGMTTVTTLETRPLPDGTTVTREVVTDENGTVVSTTVSRVSPEGVVTAESAGGSAGGSAGGS [r10_1014_JUSTAS] | -0.0113 ± 0.05 | 0.97 ± 0.025 | 0.623 ± 0.055
SAGGSAGGSAGGMVIRLEDGRTLVFETREEAEEAAKALAEELGLKEVKVEIVEVPLEELPSAGGSAGGSAGG [r7_839_TrROS_Hall] | 2.11 ± 0.073 | 2.6 ± 0.032 | 2.4 ± 0.045
SAGGSAGGSAGGMVITVPKENLKELIDALRKEGKARIVSVEEKDGLVTITVELEDEELESAGGSAGGSAGGS [r10_695_TrROS_Hall] | 3.24 ± 0.18 | 2.28 ± 0.075 | 2.95 ± 0.11
SAGGSAGGSAGGMVIVKVHLPNGNTLTFVFPGMTLDEIREELASQGGKIKEIEIVPMENSAGGSAGGSAGGS [r10_572_TrROS] | 2.17 ± 0.07 | 2.323 ± 0.02 | 2.28 ± 0.079
SAGGSAGGSAGGMVKIKLKNGKWYEAKVTEIDEDGNVVVELPNGKKFTVPAKDLEIEVLPSAGGSAGGSAGG [r7_823_TrROS_Hall] | 3.77 ± 0.29 | 3.7 ± 0.097 | 3.69 ± 0.11
SAGGSAGGSAGGMVTTLEVTVSPDGVITVTTVTTDAAGTPVTTTTTTTVLGPGGPVLAVSAGGSAGGSAGGS [r10_484_JUSTAS] | 2.05 ± 0.13 | 2 ± 0.044 | 2.03 ± 0.12
SAGGSAGGSAGGMVVRITTKDGRTITFPPGTSLEELRSLPADEITRVEVVEVEPVRVVEPSAGGSAGGSAGG [r7_190_TrROS_Hall] | 1.45 ± 0.028 | 1.97 ± 0.051 | 1.75 ± 0.082
SAGGSAGGSAGGMVVRVTKNGTSTEIIVDSEEEAKELLKPLFPDDSEVEIEFVSEEELSSAGGSAGGSAGGS [r10_1167_JUSTAS] | 0.0397 ± 0.07 | 0.963 ± 0.065 | 0.718 ± 0.12
SAGGSAGGSAGGMYFIRIKPPNGEELVILIPPGDEIKIKDADGRPWKITDVYPMPPEQFSAGGSAGGSAGGS [r10_422_TrROS] | -0.17 ± 0.27 | -0.118 ± 0.73 | 0.0506 ± 0.41
SAGGSAGGSAGGMYRIKVTTKDGRERVIEVKPGEEITLEELRKAGLSEEEIERVEIEEVSAGGSAGGSAGGS [r10_565_TrROS_Hall] | 1.89 ± 0.076 | 1.85 ± 0.051 | 1.84 ± 0.092
SAGGSAGGSAGGMYRVEIETKGNKKVYIFPNLSPEELAKFLEDPKVVSYKVEKLSPEELESAGGSAGGSAGG [r7_502_JUSTAS] | 2.04 ± 0.077 | 2.34 ± 0.094 | 2.27 ± 0.08
SAGGSAGGSAGGNEEDIEKAVKEAKEKGENAEVKVTLPNGKEETVYIEVNVKEPSEKLKSAGGSAGGSAGGS [r10_573_JUSTAS] | -1.05 ± 0.47 | -1.04 ± 0.22 | < -1
SAGGSAGGSAGGNFKITEPVEEYPNPNGNPIKVFTFKNPDDGPEFTFIFMPNGNWQFIPSAGGSAGGSAGGS [r10_1123_TrROS] | 0.674 ± 0.09 | 0.797 ± 0.14 | 0.77 ± 0.12
